This is an account of results in the Human Domainome abundance scans (Beltran et al. 2025).

± gives the uncertainty stated by the source.

The data set in a line: abundance fitness (aPCA) (normalised: wild type 0, dead -1); higher = more abundant; growth selection in yeast, the domain comes from the species named. To be noted: Homo sapiens.
As to “E3 ubiquitin-protein ligase NEDD4-like V229S, Q96PU5”, the abundance fitness came to 0.033 ± 0.067.
For the substance “E3 ubiquitin-protein ligase NEDD4-like V229T, Q96PU5”, the abundance fitness was 0.018 ± 0.065.
“E3 ubiquitin-protein ligase NEDD4-like V229W, Q96PU5” displayed an abundance fitness of -0.164 ± 0.06.
As for “E3 ubiquitin-protein ligase NEDD4-like W199A, Q96PU5”, the abundance fitness was -0.535 ± 0.086.
For “E3 ubiquitin-protein ligase NEDD4-like W199C, Q96PU5” the value was -0.25 ± 0.098.
For “E3 ubiquitin-protein ligase NEDD4-like W199D, Q96PU5” the value was -0.744 ± 0.1; for “E3 ubiquitin-protein ligase NEDD4-like W199E, Q96PU5”, -0.275 ± 0.083.
For “E3 ubiquitin-protein ligase NEDD4-like W199F, Q96PU5” the value was 0.004 ± 0.079; for “E3 ubiquitin-protein ligase NEDD4-like W199G, Q96PU5”, -0.413 ± 0.063.
The substance “E3 ubiquitin-protein ligase NEDD4-like W199I, Q96PU5” showed an abundance fitness of -0.462 ± 0.13.
For “E3 ubiquitin-protein ligase NEDD4-like W199L, Q96PU5” the value was -0.502 ± 0.058.
For “E3 ubiquitin-protein ligase NEDD4-like W199M, Q96PU5” the value was -0.514 ± 0.089.
With “E3 ubiquitin-protein ligase NEDD4-like W199N, Q96PU5”, the abundance fitness was -0.853 ± 0.19.
For “E3 ubiquitin-protein ligase NEDD4-like W199P, Q96PU5” the value was -1.03 ± 0.13.
In the case of “E3 ubiquitin-protein ligase NEDD4-like W199Q, Q96PU5”, the abundance fitness was -0.586 ± 0.098.
For “E3 ubiquitin-protein ligase NEDD4-like W199R, Q96PU5” the value was -0.536 ± 0.065.
In turn, “E3 ubiquitin-protein ligase NEDD4-like W199S, Q96PU5” yielded an abundance fitness of -0.454 ± 0.067.
For “E3 ubiquitin-protein ligase NEDD4-like W199T, Q96PU5” the value was -0.176 ± 0.09; for “E3 ubiquitin-protein ligase NEDD4-like W199V, Q96PU5”, -0.287 ± 0.07; for “E3 ubiquitin-protein ligase NEDD4-like W199Y, Q96PU5”, -0.403 ± 0.14.
Turning to “E3 ubiquitin-protein ligase NEDD4-like W221A, Q96PU5”, the abundance fitness is -0.035 ± 0.077.
“E3 ubiquitin-protein ligase NEDD4-like W221C, Q96PU5”: the abundance fitness is -0.051 ± 0.079.
For “E3 ubiquitin-protein ligase NEDD4-like W221D, Q96PU5”, the abundance fitness was -0.029 ± 0.1.
“E3 ubiquitin-protein ligase NEDD4-like W221E, Q96PU5”: the abundance fitness was -0.106 ± 0.085.
As for “E3 ubiquitin-protein ligase NEDD4-like W221F, Q96PU5”, the abundance fitness is -0.04 ± 0.084.
For “E3 ubiquitin-protein ligase NEDD4-like W221G, Q96PU5” the value was -0.219 ± 0.063.
For the substance “E3 ubiquitin-protein ligase NEDD4-like W221H, Q96PU5”, the abundance fitness is -0.243 ± 0.1.
“E3 ubiquitin-protein ligase NEDD4-like W221I, Q96PU5” returned an abundance fitness of -0.192 ± 0.12.
The substance “E3 ubiquitin-protein ligase NEDD4-like W221K, Q96PU5” returned an abundance fitness of -0.044 ± 0.1.
For “E3 ubiquitin-protein ligase NEDD4-like W221L, Q96PU5” the value was -0.031 ± 0.054.
The substance “E3 ubiquitin-protein ligase NEDD4-like W221N, Q96PU5” had an abundance fitness of -0.402 ± 0.11.
In turn, “E3 ubiquitin-protein ligase NEDD4-like W221Q, Q96PU5” showed an abundance fitness of 0.196 ± 0.1.
Turning to “E3 ubiquitin-protein ligase NEDD4-like W221R, Q96PU5”, the abundance fitness is -0.052 ± 0.058.
For “E3 ubiquitin-protein ligase NEDD4-like W221S, Q96PU5” the value was 0.124 ± 0.063; for “E3 ubiquitin-protein ligase NEDD4-like W221T, Q96PU5”, -0.035 ± 0.063.
For “E3 ubiquitin-protein ligase NEDD4-like W221V, Q96PU5” the value was -0.123 ± 0.066.
For “E3 ubiquitin-protein ligase NEDD4-like W221Y, Q96PU5” the value was 0.193 ± 0.12; for “E3 ubiquitin-protein ligase NEDD4-like Y210A, Q96PU5”, -0.379 ± 0.067.
“E3 ubiquitin-protein ligase NEDD4-like Y210C, Q96PU5” gave an abundance fitness of -0.386 ± 0.1.
For “E3 ubiquitin-protein ligase NEDD4-like Y210E, Q96PU5” the value was -0.516 ± 0.082; for “E3 ubiquitin-protein ligase NEDD4-like Y210F, Q96PU5”, -0.255 ± 0.1.
Substance “E3 ubiquitin-protein ligase NEDD4-like Y210G, Q96PU5” gave an abundance fitness of -0.621 ± 0.057.
“E3 ubiquitin-protein ligase NEDD4-like Y210I, Q96PU5” had an abundance fitness of -0.379 ± 0.07.
Substance “E3 ubiquitin-protein ligase NEDD4-like Y210K, Q96PU5” gave an abundance fitness of -0.269 ± 0.069.
In the case of “E3 ubiquitin-protein ligase NEDD4-like Y210L, Q96PU5”, the abundance fitness was -0.261 ± 0.058.
“E3 ubiquitin-protein ligase NEDD4-like Y210M, Q96PU5” returned an abundance fitness of -0.19 ± 0.084.
In turn, “E3 ubiquitin-protein ligase NEDD4-like Y210N, Q96PU5” returned an abundance fitness of -0.589 ± 0.095.
For the substance “E3 ubiquitin-protein ligase NEDD4-like Y210P, Q96PU5”, the abundance fitness is -0.778 ± 0.1.
Regarding “E3 ubiquitin-protein ligase NEDD4-like Y210Q, Q96PU5”, the abundance fitness is -0.198 ± 0.069.
“E3 ubiquitin-protein ligase NEDD4-like Y210R, Q96PU5” had an abundance fitness of -0.299 ± 0.063.
Substance “E3 ubiquitin-protein ligase NEDD4-like Y210S, Q96PU5” showed an abundance fitness of -0.359 ± 0.071.
“E3 ubiquitin-protein ligase NEDD4-like Y210T, Q96PU5” had an abundance fitness of -0.159 ± 0.072.
On to “E3 ubiquitin-protein ligase NEDD4-like Y210V, Q96PU5”, for which the abundance fitness is -0.356 ± 0.069.
For “E3 ubiquitin-protein ligase NEDD4-like Y210W, Q96PU5” the value was -0.287 ± 0.08; for “E3 ubiquitin-protein ligase NEDD4-like Y211C, Q96PU5”, -0.696 ± 0.08.
For “E3 ubiquitin-protein ligase NEDD4-like Y211D, Q96PU5” the value was -0.486 ± 0.065; for “E3 ubiquitin-protein ligase NEDD4-like Y211E, Q96PU5”, -0.643 ± 0.058.
As for “E3 ubiquitin-protein ligase NEDD4-like Y211G, Q96PU5”, the abundance fitness is -0.749 ± 0.058.
“E3 ubiquitin-protein ligase NEDD4-like Y211H, Q96PU5”: the abundance fitness is -0.77 ± 0.12.
For “E3 ubiquitin-protein ligase NEDD4-like Y211I, Q96PU5” the value was -0.601 ± 0.065; for “E3 ubiquitin-protein ligase NEDD4-like Y211K, Q96PU5”, -0.691 ± 0.097; for “E3 ubiquitin-protein ligase NEDD4-like Y211M, Q96PU5”, -0.779 ± 0.11.
On to “E3 ubiquitin-protein ligase NEDD4-like Y211N, Q96PU5”, for which the abundance fitness was -0.704 ± 0.16.
“E3 ubiquitin-protein ligase NEDD4-like Y211P, Q96PU5” returned an abundance fitness of -0.548 ± 0.087.
For “E3 ubiquitin-protein ligase NEDD4-like Y211Q, Q96PU5” the value was -0.704 ± 0.085.
In turn, “E3 ubiquitin-protein ligase NEDD4-like Y211R, Q96PU5” gave an abundance fitness of -0.728 ± 0.052.
In turn, “E3 ubiquitin-protein ligase NEDD4-like Y211S, Q96PU5” yielded an abundance fitness of -0.715 ± 0.055.
“E3 ubiquitin-protein ligase NEDD4-like Y211T, Q96PU5” displayed an abundance fitness of -0.608 ± 0.064.
Turning to “E3 ubiquitin-protein ligase NEDD4-like Y211V, Q96PU5”, the abundance fitness was -0.736 ± 0.06.
For the substance “E3 ubiquitin-protein ligase NEDD4-like Y211W, Q96PU5”, the abundance fitness is -0.244 ± 0.078.
